The values below come from paper PMC6145371.

The target of the test is tau repeat domain (TauRD) conjugated to cerulean fluorescent protein (CFP) or yellow fluorescent protein (YFP). The test can be described thus: FRET or BRET; HEK293 biosensor cells with TauRD-CFP and TauRD-YFP; samples holding tau seeds (rTg4510 brain lysate 12 h, cell or microglia lysate 36 h, microglia conditioned media 72 h) added with 1% Lipofectamine; CFP to YFP FRET read by flow cytometry as integrated FRET density, normalised to cells given Lipofectamine only. (In general: Bioluminescence resonance energy transfer reports proximity on the nanometre scale.)

“tau repeat domain (TauRD) conjugated to cerulean fluorescent protein (CFP) or yellow fluorescent protein (YFP)” returned a normalized integrated FRET density (cells given rTg4510 microglia lysate) (normalized IFD) of 308 and a normalized integrated FRET density (cells given rTg4510 non-microglia cell lysate) (normalized IFD) of 3570.
